Experimental data: PMC5497066
Substitutions are numbered along the chain they refer to. Each block holds one binder with its values, some of them ahead of it.

Columns and labels:
[1] = target: single-ring mutant of GroEL, SR1 (E. coli), P0A6F5
[2] = target: single-ring truncation mutant, SRΔ526 (E. coli); assay: protease protection (encapsulation); denatured PepQ-24F (100 nM) bound to wild-type or Δ526 GroEL-GroES-ADP bullets (200 nM) or full-length or Δ526 single-ring GroEL (300 nM) with GroES (600 nM); single turnover with ATP (2 mM), quenched after 10 s; unencapsulated PepQ digested with Proteinase K; SDS-PAGE, fluorescein scan

observed folding rate constant of PepQ by recovery of enzymatic activity, bound to SR1 (300 nM) and refolded with GroES (600 nM) and ATP (2 mM) [1]: 0.62 min⁻¹
B1: wild type E. coli PepQ, P21165 1-443 (enzyme)
chain: MESLASLYKNHIATLQERTRDALARFKLDALLIHSGELFNVFLDDHPYPFKVNPQFKAWVPVTQVPNCWLLVDGVNKPKLWFYLPVDYWHNVEPLPTSFWTEDVEVIALPKADGIGSLLPAARGNIGYIGPVPERALQLGIEASNINPKGVIDYLHYYRSFKTEYELACMREAQKMAVNGHRAAEEAFRSGMSEFDINIAYLTATGHRDTDVPYSNIVALNEHAAVLHYTKLDHQAPEEMRSFLLDAGAEYNGYAADLTRTWSAKSDNDYAQLVKDVNDEQLALIATMKAGVSYVDYHIQFHQRIAKLLRKHQIITDMSEEAMVENDLTGPFMPHGIGHPLGLQVHDVAGFMQDDSGTHLAAPAKYPYLRCTRILQPGMVLTIEPGIYFIESLLAPWREGQFSKHFNWQKIEALKPFGGIRIEDNVVIHENNVENMTRDLKLA

early escape compared to SR1 [2]: < 10%
B2: PepQ-24F (enzyme)
chain: B1 chain with A24C
modifications: fluorescein (5-iodoacetamidofluorescein) on the cysteine at position 24
